# Patent publication US20240116985A1 (published 2024)
# Starred links: 1 amine or outer side, 2 acyl side, 3 side chain; linkers in the order of their positions; H or OH if unused. Positions of bridges follow the written chain, without caps; N, C: chain ends. Non-standard residues stand in square brackets, D forms with d. Primed or numbered codes have the meaning given here. PyrS(3) = (S)-1-((allyloxy)carbonyl)-3-aminopyrrolidine-3-carboxylic acid, stapling residue, C=CCOC(=O)N1CC[C@@](N[*:1])(C(=O)[*:2])C1; PyrS″ = (S)-1-((allyloxy)carbonyl)-3-aminopyrrolidine-3-carboxylic acid (stapling residue), C=CCOC(=O)N1CC[C@@](N[*:1])(C(=O)[*:2])C1; PyrS = (S)-1-((allyloxy)carbonyl)-3-aminopyrrolidine-3-carboxylic acid, C=CCOC(=O)N1CC[C@@](N[*:1])(C(=O)[*:2])C1; Phe(3-CONH2) = NC(=O)c1cccc(C[C@H](N)C(=O)O)c1; Phe(4-CONH2) = NC(=O)c1ccc(C[C@H](N)C(=O)O)cc1; Phe(4-COOH) = N[C@@H](Cc1ccc(C(=O)O)cc1)C(=O)O; Phe(2-CONH2) = NC(=O)c1ccccc1C[C@H](N)C(=O)O; Phe(3-OMe) = COc1cccc(C[C@H](N)C(=O)O)c1; Ala(cPent) = N[C@@H](CC1CCCC1)C(=O)O; hPhe = N[C@@H](CCc1ccccc1)C(=O)O; 2Pal = N[C@@H](Cc1ccccn1)C(=O)O; 3Pal = N[C@@H](Cc1cccnc1)C(=O)O; 4Pal = N[C@@H](Cc1ccncc1)C(=O)O; R8 = C=CCCCCCC[C@@](C)(N)C(=O)O
# T1: full-length beta-Catenin (Uniprot ID P35222) (Homo sapiens (Human), UniProt P35222 2-781)
# T1 construct: also called B-Catenin; bCat
# T1 sequence: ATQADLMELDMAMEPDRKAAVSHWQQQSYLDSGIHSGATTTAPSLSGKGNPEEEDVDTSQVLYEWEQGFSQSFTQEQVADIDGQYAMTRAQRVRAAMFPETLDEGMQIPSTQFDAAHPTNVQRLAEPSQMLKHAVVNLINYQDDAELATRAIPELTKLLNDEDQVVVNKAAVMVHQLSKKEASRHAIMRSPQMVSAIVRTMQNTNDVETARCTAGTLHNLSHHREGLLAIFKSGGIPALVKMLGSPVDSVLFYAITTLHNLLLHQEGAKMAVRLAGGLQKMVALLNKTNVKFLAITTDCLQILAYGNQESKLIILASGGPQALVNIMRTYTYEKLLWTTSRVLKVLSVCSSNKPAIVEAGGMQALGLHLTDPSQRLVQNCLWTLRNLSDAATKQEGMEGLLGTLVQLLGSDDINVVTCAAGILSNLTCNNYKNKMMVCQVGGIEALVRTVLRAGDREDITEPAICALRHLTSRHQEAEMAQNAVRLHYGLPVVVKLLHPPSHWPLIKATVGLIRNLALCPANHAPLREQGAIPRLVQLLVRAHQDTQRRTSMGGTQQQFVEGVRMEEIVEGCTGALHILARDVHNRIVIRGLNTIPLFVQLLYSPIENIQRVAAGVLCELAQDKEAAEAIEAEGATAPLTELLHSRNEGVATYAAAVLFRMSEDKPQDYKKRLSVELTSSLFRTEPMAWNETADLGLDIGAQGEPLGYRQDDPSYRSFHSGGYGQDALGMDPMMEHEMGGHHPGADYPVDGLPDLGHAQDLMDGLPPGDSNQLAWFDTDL
# T2: full-length beta-Catenin (Uniprot ID P35222) (Homo sapiens (Human), UniProt P35222 2-781)
# T2 construct: Used full-length in both the FP and the AlphaScreen assay; also called B-Catenin; bCat
# T2 sequence: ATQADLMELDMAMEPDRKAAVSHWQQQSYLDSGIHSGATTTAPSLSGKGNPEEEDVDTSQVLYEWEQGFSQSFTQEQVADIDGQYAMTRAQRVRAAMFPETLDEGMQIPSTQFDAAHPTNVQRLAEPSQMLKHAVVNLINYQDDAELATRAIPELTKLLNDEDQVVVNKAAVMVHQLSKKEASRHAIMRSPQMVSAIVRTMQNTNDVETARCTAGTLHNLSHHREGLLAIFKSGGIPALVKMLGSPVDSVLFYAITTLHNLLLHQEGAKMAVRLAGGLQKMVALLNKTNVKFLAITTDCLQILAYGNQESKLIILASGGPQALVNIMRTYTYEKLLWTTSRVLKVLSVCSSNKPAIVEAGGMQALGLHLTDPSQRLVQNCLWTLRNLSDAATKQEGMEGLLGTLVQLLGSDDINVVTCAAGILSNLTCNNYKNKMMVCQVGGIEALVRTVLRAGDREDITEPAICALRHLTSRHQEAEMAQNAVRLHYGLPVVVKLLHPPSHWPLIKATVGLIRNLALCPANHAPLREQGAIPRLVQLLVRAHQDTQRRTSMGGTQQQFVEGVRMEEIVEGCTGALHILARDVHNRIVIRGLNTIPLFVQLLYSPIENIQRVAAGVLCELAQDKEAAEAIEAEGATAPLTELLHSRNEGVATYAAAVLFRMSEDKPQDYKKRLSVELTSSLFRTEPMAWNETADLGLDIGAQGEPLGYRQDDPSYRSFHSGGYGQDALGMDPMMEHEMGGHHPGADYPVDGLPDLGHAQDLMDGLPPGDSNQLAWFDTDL
# Target: T1, full-length beta-Catenin (Uniprot ID …)
# Experiment: Alphascreen competition; biotin-TCF4(10-53) probe with full-length beta-catenin
# Description: (§1) Equal volume of the titrated peptide was added to the plate and incubated for 15 minutes at 20° C. Then 4 uL of donor and 4 uL acceptor beads at 10 ug/mL were added to the plate, for a 16 uL reaction pool and protected from light for 60 minutes at 20° C. prior to read. Reads were performed on a CLARIOstar plate reader (BMG Labtech) in duplicate, and data were fitted to a 1:1 binding model with hill slope using an in-house script. All provided concentrations are final concentrations.
row,Binder,EC50 [µM]
1,"Ac-FDA[R8]DDAAFV[PyrS″][Phe(3-OMe)]WQ-NH2 (staple 4-11; not fully specified; printed as Ac-Phe-Asp-Ala-R8-Asp-Asp-Ala-Ala-Phe-Val-PyrS-3OMeF-Trp-Gln-NH2, Stapled peptide composition) [I-101]",≥ 10
2,"Ac-FDA[R8]DDAA[Ala(cPent)]V[PyrS″]FWQ-NH2 (staple 4-11, Stapled peptide composition; same description as I-96, separate earlier-eluting HPLC peak (staple isomer)) [I-95]",8.66
3,"Ac-FDA[R8]DDAA[Ala(cPent)]V[PyrS]FWQ-NH2 (staple 4-11, Stapled peptide composition; same description as I-95, separate later-eluting HPLC peak (staple isomer)) [I-96]",≥ 10
4,"Ac-FDA[R8]DDAAFV[PyrS″][Phe(4-COOH)]WQ-NH2 (staple 4-11; not fully specified; printed as Ac-Phe-Asp-Ala-R8-Asp-Asp-Ala-Ala-Phe-Val-PyrS-4COOHF-Trp-Gln-NH2, Stapled peptide composition) [I-110]",8.5
5,"Ac-FDA[R8]DDAA[Phe(3-OMe)]V[PyrS″]FWQ-NH2 (staple 4-11; not fully specified; printed as Ac-Phe-Asp-Ala-R8-Asp-Asp-Ala-Ala-3OMeF-Val-PyrS-Phe-Trp-Gln-NH2, Stapled peptide composition) [I-104]",6.17
6,"Ac-FDA[R8]DDAA[Phe(3-OMe)]V[PyrS″]FWQ-NH2 (staple 4-11; not fully specified; printed as Ac-Phe-Asp-Ala-R8-Asp-Asp-Ala-Ala-3OMeF-Val-PyrS-Phe-Trp-Gln-NH2, Stapled peptide composition) [I-103]",4.95
7,"Ac-FDA[R8]D[hPhe]AAFV[PyrS″]FWQ-NH2 (staple 4-11; not fully specified; printed as Ac-Phe-Asp-Ala-R8-Asp-hPhe-Ala-Ala-Phe-Val-PyrS-Phe-Trp-Gln-NH2, Stapled peptide composition; same description as I-98, separate earlier-eluting HPLC peak (staple isomer)) [I-97]",7.01
8,"Ac-FDA[R8]DDAAFV[PyrS″][Ala(cPent)]WQ-NH2 (staple 4-11, Stapled peptide composition; same description as I-94, separate earlier-eluting HPLC peak (staple isomer)) [I-93]",≥ 10
9,"Ac-FDA[R8]DDAAFV[PyrS][Ala(cPent)]WQ-NH2 (staple 4-11, Stapled peptide composition; same description as I-93, separate later-eluting HPLC peak (staple isomer)) [I-94]",7.01
10,"Ac-FDA[R8]DDAAFV[PyrS″][Phe(3-CONH2)]WQ-NH2 (staple 4-11, Stapled peptide composition) [I-107]",≥ 10
11,"Ac-FDA[R8]DDAAFV[PyrS″][Phe(3-OMe)]WQ-NH2 (staple 4-11; not fully specified; printed as Ac-Phe-Asp-Ala-R8-Asp-Asp-Ala-Ala-Phe-Val-PyrS-3OMeF-Trp-Gln-NH2, Stapled peptide composition) [I-102]",≥ 10
12,"Ac-FDA[R8]DDAA[Phe(3-CONH2)]V[PyrS″]FWQ-NH2 (staple 4-11; not fully specified; printed as Ac-Phe-Asp-Ala-R8-Asp-Asp-Ala-Ala-3CBMF-Val-PyrS-Phe-Trp-Gln-NH2, Stapled peptide composition) [I-109]",8.82
13,"Ac-FDA[R8]DDAA[Phe(3-CONH2)]V[PyrS″]FWQ-NH2 (staple 4-11; not fully specified; printed as Ac-Phe-Asp-Ala-R8-Asp-Asp-Ala-Ala-3CBMF-Val-PyrS-Phe-Trp-Gln-NH2, Stapled peptide composition) [I-108]",≥ 10
14,"Ac-FDA[R8]DDAAFV[PyrS][Phe(2-CONH2)]WQ-NH2 (staple 4-11; not fully specified; printed as Ac-Phe-Asp-Ala-R8-Asp-Asp-Ala-Ala-Phe-Val-PyrS-2CBMF-Trp-Gln-NH2, Stapled peptide composition) [I-106]",≥ 10
15,"Ac-FDA[R8]DDAAFV[PyrS″][Phe(2-CONH2)]WQ-NH2 (staple 4-11; not fully specified; printed as Ac-Phe-Asp-Ala-R8-Asp-Asp-Ala-Ala-Phe-Val-PyrS-2CBMF-Trp-Gln-NH2, Stapled peptide composition) [I-105]",≥ 10
16,"Ac-FDA[R8]DDAA[Phe(4-CONH2)]V[PyrS″]FWQ-NH2 (staple 4-11, Stapled peptide composition; same description as I-91, separate later-eluting HPLC peak (staple isomer)) [I-92]",9.15
17,"Ac-FDA[R8]DDAA[Phe(4-CONH2)]V[PyrS″]FWQ-NH2 (staple 4-11, Stapled peptide composition; same description as I-92, separate earlier-eluting HPLC peak (staple isomer)) [I-91]",4.72
18,"Ac-FDA[R8]DDAAFV[PyrS(3)]DWQ-NH2 (staple 4-11, Stapled peptide composition) [I-121]",4.46
19,"Ac-FDA[R8]DDAAFV[PyrS″]DWQ-NH2 (staple 4-11; not fully specified; printed as Ac-Phe-Asp-Ala-R8-Asp-Asp-Ala-Ala-Phe-Val-PyrS-Asp-Trp-Gln-NH2, Stapled peptide composition) [I-122]",≥ 10
20,"Ac-FDA[R8]DFAAFV[PyrS″]FWQ-NH2 (staple 4-11, Stapled peptide composition; same description as I-99, separate later-eluting HPLC peak (staple isomer)) [I-100]",9.23
21,"Ac-FDA[R8]DFAAFV[PyrS]FWQ-NH2 (staple 4-11; not fully specified; printed as Ac-Phe-Asp-Ala-R8-Asp-Phe-Ala-Ala-Phe-Val-PyrS-Phe-Trp-Gln-NH2, Stapled peptide composition; same description as I-100, separate earlier-eluting HPLC peak (staple isomer)) [I-99]",≥ 10
22,"Ac-FDA[R8]D[hPhe]AAFV[PyrS″]FWQ-NH2 (staple 4-11; not fully specified; printed as Ac-Phe-Asp-Ala-R8-Asp-hPhe-Ala-Ala-Phe-Val-PyrS-Phe-Trp-Gln-NH2, Stapled peptide composition; same description as I-97, separate later-eluting HPLC peak (staple isomer)) [I-98]",≥ 10

# Target: T2, full-length beta-Catenin (Uniprot ID …)
# Experiment: AlphaScreen competition; full-length beta-catenin, biotin-TCF4(10-53) probe
# Description: as §1
row,Binder,EC50 [µM]
1,"Ac-FDA[R8]DDAAFV[PyrS][3Pal]WQ-NH2 (staple 4-11, Stapled peptide; also called Ac-Phe-Asp-Ala-R8-Asp-Asp-Ala-Ala-Phe-Val-PyrS-3PyrA-Trp-Gln-NH2) [I-83]",≥ 10
2,"Ac-FDA[R8]DDAAFV[PyrS″][Phe(4-CONH2)]WQ-NH2 (staple 4-11, Stapled peptide; also called Ac-Phe-Asp-Ala-R8-Asp-Asp-Ala-Ala-Phe-Val-PyrS-4CBMF-Trp-Gln-NH2) [I-90]",≥ 10
3,"Ac-FDA[R8]DDAAFV[PyrS″][4Pal]WQ-NH2 (staple 4-11; not fully specified; printed as Ac-Phe-Asp-Ala-R8-Asp-Asp-Ala-Ala-Phe-Val-PyrS-4PyrA-Trp-Gln-NH2, Stapled peptide; also called Ac-Phe-Asp-Ala-R8-Asp-Asp-Ala-Ala-Phe-Val-PyrS-4PyrA-Trp-Gln-NH2) [I-84]",≥ 10
4,"Ac-FDA[R8]DDAA[2Pal]V[PyrS]FWQ-NH2 (staple 4-11, Stapled peptide; also called Ac-Phe-Asp-Ala-R8-Asp-Asp-Ala-Ala-2PyrA-Val-PyrS-Phe-Trp-Gln-NH2) [I-86]",≥ 10
5,"Ac-FDA[R8]DDAAFV[PyrS][4Pal]WQ-NH2 (staple 4-11; not fully specified; printed as Ac-Phe-Asp-Ala-R8-Asp-Asp-Ala-Ala-Phe-Val-PyrS-4PyrA-Trp-Gln-NH2, Stapled peptide; also called Ac-Phe-Asp-Ala-R8-Asp-Asp-Ala-Ala-Phe-Val-PyrS-4PyrA-Trp-Gln-NH2) [I-85]",≥ 10
6,"Ac-FDA[R8]DDAA[3Pal]V[PyrS″]FWQ-NH2 (staple 4-11; not fully specified; printed as Ac-Phe-Asp-Ala-R8-Asp-Asp-Ala-Ala-3PyrA-Val-PyrS-Phe-Trp-Gln-NH2, Stapled peptide; also called Ac-Phe-Asp-Ala-R8-Asp-Asp-Ala-Ala-3PyrA-Val-PyrS-Phe-Trp-Gln-NH2) [I-87]",≥ 10
7,"Ac-FDA[R8]DDAAFV[PyrS″][Phe(4-CONH2)]WQ-NH2 (staple 4-11; not fully specified; printed as Ac-Phe-Asp-Ala-R8-Asp-Asp-Ala-Ala-Phe-Val-PyrS-4CBMF-Trp-Gln-NH2, Stapled peptide; also called Ac-Phe-Asp-Ala-R8-Asp-Asp-Ala-Ala-Phe-Val-PyrS-4CBMF-Trp-Gln-NH2) [I-89]",5.64
8,"Ac-FDA[R8]DDAA[3Pal]V[PyrS″]FWQ-NH2 (staple 4-11; not fully specified; printed as Ac-Phe-Asp-Ala-R8-Asp-Asp-Ala-Ala-3PyrA-Val-PyrS-Phe-Trp-Gln-NH2, Stapled peptide; also called Ac-Phe-Asp-Ala-R8-Asp-Asp-Ala-Ala-3PyrA-Val-PyrS-Phe-Trp-Gln-NH2) [I-88]",≥ 10
9,"Ac-FDA[R8]DDAAFV[PyrS″][3Pal]WQ-NH2 (staple 4-11, Stapled peptide; also called Ac-Phe-Asp-Ala-R8-Asp-Asp-Ala-Ala-Phe-Val-PyrS-3PyrA-Trp-Gln-NH2) [I-82]",≥ 10
